Data as given in patent US20180073026, “NOVEL EXPRESSION REGULATING RNA-MOLECULES AND USES THEREOF” (Universität Wien, published 2018).

Biological target: RNA polymerase (His6 RNAP; holoenzyme) (Escherichia coli, UniProt P0A7Z4;P0A8V2;P0A8T7;P0A800;P00579 …)
Assay: in vitro transcription, reduction of rrnB termination vs Rev #5713, purified RNAP only
Settings: tags: His6 (Nudler Lab) or holoenzyme from Affymetrix; chain copies: 2,1,1,1,1
Method: Transcription reactions were performed in solution. Wild-type E. coli His6 RNAP (Evgeny Nudler Lab) and wild-type E. coli RNAP Holoenzyme (Affymetrix) were used in the assays. […] Then AUC RNA primer (Dharmacon) was added up to 10 μM together with GTP (25 μM) and ATP (25 μM) followed by incubation at 37° C. for 5 minutes. Next, [α-32P]-CTP (800 Ci/mmol, 2 μl, Hartmann Analytic) was added for another 2 min. To minimize RNA degradation 10 U of RNasin® Ribonuclease Inhibitor (Promega) were added to the reaction. For the reactions with Rho and NusG, the purified transcription factors were added in a concentration of up to 0.5 μM to the transcriptional mixtures where indicated, followed by additional incubation at 37° C. for 5 minutes. Chasing reaction was performed with all four NTPs added to a final concentration of 10-50 μM. To prevent re-initiation, rifampicin (Sigma) was added concurrently at this step to a final concentration of 10 μM. At the indicated time points, an aliquot of chase reaction was quenched with 3× Stop Solution, containing 100 mM EDTA, 8M UREA, 0.025% xylenthianol and 0.025% bromophenol blue. The products were separated by 6% denaturing TBE-PAGE (8M urea). […]

B1: RAP #5713 (ssRNA)
RNA: GACAACAUGAGAACAGUUCAGCAGCACUA
With B1 the activity was > 2 fold.
